Test results from patent US8211429 (dated 2012).
Substitutions are numbered along the chain they refer to. One block for each binder: values may come before it.

Key:
human NRP1 [1] = molecular target: T1, human NRP1 (human, UniProt O14786); test: competition phage ELISA
murine NRP1 [2] = molecular target: T2, murine NRP1 (mouse, UniProt P97333); test: competition phage ELISA
T2 chain: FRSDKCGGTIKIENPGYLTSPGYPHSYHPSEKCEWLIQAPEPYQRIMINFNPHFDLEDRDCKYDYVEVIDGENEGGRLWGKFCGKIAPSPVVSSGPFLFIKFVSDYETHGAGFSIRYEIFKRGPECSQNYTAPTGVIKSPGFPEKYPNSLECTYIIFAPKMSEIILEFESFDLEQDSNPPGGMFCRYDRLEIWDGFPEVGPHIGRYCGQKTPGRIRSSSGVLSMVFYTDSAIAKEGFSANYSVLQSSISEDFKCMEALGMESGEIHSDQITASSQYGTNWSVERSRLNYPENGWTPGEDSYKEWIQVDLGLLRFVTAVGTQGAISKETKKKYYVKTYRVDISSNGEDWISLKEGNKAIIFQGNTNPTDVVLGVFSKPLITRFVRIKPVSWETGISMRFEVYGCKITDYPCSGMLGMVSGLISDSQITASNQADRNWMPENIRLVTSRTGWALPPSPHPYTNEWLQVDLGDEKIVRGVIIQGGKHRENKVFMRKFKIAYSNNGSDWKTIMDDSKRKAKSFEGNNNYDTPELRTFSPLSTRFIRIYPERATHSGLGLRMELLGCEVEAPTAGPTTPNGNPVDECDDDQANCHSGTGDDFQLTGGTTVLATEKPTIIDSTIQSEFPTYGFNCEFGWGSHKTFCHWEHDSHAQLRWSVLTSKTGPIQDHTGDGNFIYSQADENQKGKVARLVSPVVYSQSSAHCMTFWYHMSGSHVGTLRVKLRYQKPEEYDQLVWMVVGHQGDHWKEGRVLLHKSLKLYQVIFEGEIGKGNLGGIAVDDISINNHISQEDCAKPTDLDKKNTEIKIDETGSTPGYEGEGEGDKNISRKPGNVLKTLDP

murine NRP1 [3] = molecular target: T2, murine NRP1; test: SPR 25C
human NRP1 [4] = molecular target: T1, human NRP1; test: SPR 25C

B2: YW107.4.38 (antibody, V domains shown)
VH: EVQLVESGGGLVQPGGSLRLSCAASGFTFSSYAMSWVRQAPGKGLEWVSQISPAGGYTNYADSVKGRFTISADTSKNTAYLQMNSLRAEDTAVYYCARELPYYRMSKVMDVWGQGTLVTVSS
VL: DIQMTQSPSSLSASVGDRVTITCRASQYLSSYLAWYQQKPGKAPKLLIYGASSRASGVPSRFSGSGSGTDFTLTISSLQPEDFATYYCQQYLRSPITFGQGTKVEIKR
IC50 (human NRP1 [1]): 0.28 nM
Kd (murine NRP1 [3]): 3.2 nM
Kd (human NRP1 [4]): 1.8 nM
IC50 (murine NRP1 [2]): 1.4 nM

B4: YW107.4.33a (antibody, V domains shown)
VH: B2 VH
VL: B2 VL with L29I, S53R, L92I, R93G
IC50 (human NRP1 [1]): 0.31 nM

B5: YW107.4.51 (antibody, V domains shown)
VH: B2 VH
VL: B2 VL with Y28R, L29I, S53R, A55E, L92K, R93L, I96L
IC50 (human NRP1 [1]): 2 nM
IC50 (murine NRP1 [2]): 12 nM

B7: YW107.4.52 (antibody, V domains shown)
VH: B2 VH
VL: B2 VL with L29F, S53T, R54L, L92I, I96L
IC50 (human NRP1 [1]): 0.22 nM
Kd (murine NRP1 [3]): 1.2 nM
Kd (human NRP1 [4]): 0.9 nM
IC50 (murine NRP1 [2]): 1.1 nM

B8: YW107.4.55 (antibody, V domains shown)
VH: B2 VH
VL: B2 VL with Y28L, L29T, S30H, L92Y, R93S, I96L
IC50 (human NRP1 [1]): 0.93 nM
IC50 (murine NRP1 [2]): 2 nM

B9: YW107.4.17 (antibody, V domains shown)
VH: B2 VH
VL: B2 VL with L29T, S30H, L92Y, R93S, I96V
IC50 (human NRP1 [1]): 0.24 nM
IC50 (murine NRP1 [2]): 6 nM

B10: YW107.4.41 (antibody, V domains shown)
VH: B2 VH
VL: B2 VL with Y28W, L29T, S30H, S53R, R54L, A55E, L92F, R93I, I96H
IC50 (human NRP1 [1]): 0.43 nM
IC50 (murine NRP1 [2]): 5.5 nM

B11: YW107.4.42 (antibody, V domains shown)
VH: B2 VH
VL: B2 VL with Y28W, L29I, S30H, R54S, L92Y, R93S, I96L
IC50 (human NRP1 [1]): 0.81 nM
IC50 (murine NRP1 [2]): 1.2 nM

B13: YW107.4.12 (antibody, V domains shown)
VH: B2 VH
VL: B2 VL with L29T, S30H, L92Y, R93S
IC50 (human NRP1 [1]): 0.1 nM
IC50 (murine NRP1 [2]): 3.4 nM

B14: YW107.4.33b (antibody, V domains shown)
VH: B2 VH
VL: B2 VL with L29I, S30H, S53R, L92Y, R93G, S94T, I96H
IC50 (human NRP1 [1]): 0.58 nM
IC50 (murine NRP1 [2]): 7.8 nM

B16: YW107.4.54 (antibody, V domains shown)
VH: B2 VH
VL: B2 VL with Y28P, S30H, L92Y, I96L
IC50 (human NRP1 [1]): 0.84 nM
IC50 (murine NRP1 [2]): 2.7 nM

B17: YW107.4.18 (antibody, V domains shown)
VH: B2 VH
VL: B2 VL with L29F, S53T, R54H, A55E, L92I, I96L
Kd (murine NRP1 [3]): 2.1 nM
Kd (human NRP1 [4]): 1 nM
IC50 (murine NRP1 [2]): 1.1 nM

B19: YW107.4.53 (antibody, V domains shown)
VH: B2 VH
VL: B2 VL with L29I, S53R, A55E, R93N, I96L
IC50 (human NRP1 [1]): 0.3 nM
IC50 (murine NRP1 [2]): 1.7 nM

B22: YW107.4.20 (antibody, V domains shown)
VH: B2 VH
VL: B2 VL with Y28R, L29T, S30H, L92Y, R93G, I96H
IC50 (human NRP1 [1]): 0.45 nM
IC50 (murine NRP1 [2]): 33 nM

Other lines, results leading:

IC50 (human NRP1 [1]): 0.73 nM
IC50 (murine NRP1 [2]): 3.5 nM
B1: YW107.4.58 (antibody, V domains shown)
VH: B2 VH
VL: B2 VL with L29I, L92K, R93S, I96R

IC50 (human NRP1 [1]): 0.3 nM
IC50 (murine NRP1 [2]): 1.7 nM
B3: YW107.4.78 (antibody, V domains shown)
VH: B2 VH
VL: B2 VL with L29I, A55E, R93S

IC50 (human NRP1 [1]): 1.8 nM
IC50 (murine NRP1 [2]): 26 nM
B6: YW107.4.59 (antibody, V domains shown)
VH: B2 VH
VL: B2 VL with Y28R, L29I, S30H, L92Y, R93I, I96L

IC50 (human NRP1 [1]): 0.34 nM
IC50 (murine NRP1 [2]): 3.9 nM
B12: YW107.4.76b (antibody, V domains shown)
VH: B2 VH
VL: B2 VL with Y28W, L29V, S30H, L92Y, R93G, S94T

IC50 (human NRP1 [1]): 0.44 nM
IC50 (murine NRP1 [2]): 4 nM
B15: YW107.4.85 (antibody, V domains shown)
VH: B2 VH
VL: B2 VL with L29I, R54G, A55E, L92I, R93I

IC50 (human NRP1 [1]): 0.23 nM
Kd (murine NRP1 [3]): 31 nM
Kd (human NRP1 [4]): 1.4 nM
IC50 (murine NRP1 [2]): 0.8 nM
B18: YW107.4.76a (antibody, V domains shown)
VH: B2 VH
VL: B2 VL with L29I, S53R, I96H

IC50 (human NRP1 [1]): 0.15 nM
Kd (murine NRP1 [3]): 0.8 nM
Kd (human NRP1 [4]): 0.8 nM
IC50 (murine NRP1 [2]): 0.8 nM
B20: YW107.4.63 (antibody, V domains shown)
VH: B2 VH
VL: B2 VL with R54S, A55E, L92I, R93S, S94V, I96L

IC50 (human NRP1 [1]): 0.45 nM
IC50 (murine NRP1 [2]): 2.6 nM
B21: YW107.4.66 (antibody, V domains shown)
VH: B2 VH
VL: B2 VL with L29I, L92I, R93V, I96L
